Assay [1] has as its target human CD27 ligand (CD27L), membrane-bound (human). The assay can be described thus: indirect binding assay on MP-1 cells (native CD27L): varying CD27/Fc, then 125I-mouse anti-human IgG; Scatchard analysis, low-affinity component.
The target is the same in assay [2]. The assay can be described thus: indirect binding assay on CV-1/EBNA cells transfected with cloned CD27L: varying CD27/Fc, then 125I-mouse anti-human IgG; Scatchard analysis, high-affinity component.
For assay [3] the target is unchanged. The assay can be described thus: indirect binding assay on CV-1/EBNA cells transfected with cloned CD27L: varying CD27/Fc, then 125I-mouse anti-human IgG; Scatchard analysis, low-affinity component.
The target is the same in assay [4]. The assay can be described thus: indirect binding assay on MP-1 cells (native CD27L): varying CD27/Fc, then 125I-mouse anti-human IgG; Scatchard analysis, high-affinity component.

“CD27/Fc fusion protein (from UniProt P26842)”: the Ka came to 1.83e+08 M⁻¹ in assay [1], 2.7e+09 M⁻¹ in assay [2], 1.2e+08 M⁻¹ in assay [3] and 1.58e+09 M⁻¹ in assay [4].

Values taken from US5573924.
